How the values were obtained:
[1] = target: T1, hCCLZ (human myocilin coiled-coil/leucine zipper, residues 69-185) (human, UniProt Q99972 69-185); experiment: dot blot, purified construct
T1 construct: Made in E. coli (pET-30 XaLIC); Tags were cleaved for immunization and panning; the tagged form was used in cell-lysate dot blots; also called human coiled-coil/leucine zipper
T1 sequence: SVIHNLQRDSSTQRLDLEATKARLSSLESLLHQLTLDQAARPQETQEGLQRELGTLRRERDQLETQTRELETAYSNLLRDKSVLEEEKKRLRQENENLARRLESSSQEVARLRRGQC
Procedure: (§1) Dot Blots and Western Blots: Dot and western blots were conducted using protocols previously described in detail (Patterson-Orazem, et al., Exp Eye Res, 173:109-112 (2018)). Briefly, protein samples were immobilized on methanol-activated polyvinylidene difluoride membranes (Millipore®) by electrophoresis for Western blots and by direct deposition of 2 μL sample per dot for dot blots. Membranes were blocked overnight in 2% milk in PBS supplemented with 0.5% TWEEN-20, then probed with primary antibodies. Custom scAbs were tested at 1 μg/mL; IgGs were tested at 0.5 μg/mL to account for bivalency. Protein expression in cell lysates was confirmed using 1:1000 mouse anti-His antibody (RRID: AB_2533947). […] Custom scAbs were detected with 1:2000 (whole cell lysate dot blots) or 1:5000 (all other experiments) dilution of HRP-conjugated goat anti-human κ light chain secondary antibody (RRID: AB_619883). Binding of control antibodies and custom IgGs was detected using 1:2000 (whole cell lysate dot blots) or 1:5000 (all other experiments) dilution of HRP-conjugated goat anti-mouse IgG (H+L) secondary antibody (RRID: AB_2533947).
(§2) Conformational specificity was assessed by comparing results from dot blots (FIGS. 4A-4D) and Western blots (FIG. 4E-4H), experiments were conducted in parallel with specific quantities of purified myocilin constructs. […]

[2] = target: T2, hNTD (human myocilin N-terminal domain, residues 33-226) (human, UniProt Q99972 33-226); experiment: dot blot, purified construct
T2 construct: also called longer hNTD construct
T2 sequence: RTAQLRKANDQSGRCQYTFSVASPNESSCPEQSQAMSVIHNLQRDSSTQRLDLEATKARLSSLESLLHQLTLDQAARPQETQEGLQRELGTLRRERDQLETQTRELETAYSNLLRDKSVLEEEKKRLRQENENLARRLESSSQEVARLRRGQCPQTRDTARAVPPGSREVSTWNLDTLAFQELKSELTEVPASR
Procedure: as §1, §2

[3] = target: T3, mLZ (mouse myocilin leucine zipper, residues 93-171) (mouse, UniProt O70624 93-171); experiment: summary of ELISA and dot blot
T3 construct: Arose when Factor Xa cleaved mCCLZ after TLGR92; also called mouse leucine zipper; mouse LZ
T3 sequence: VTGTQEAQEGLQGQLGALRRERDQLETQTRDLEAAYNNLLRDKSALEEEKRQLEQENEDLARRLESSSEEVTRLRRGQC

[4] = target: T4, full-length endogenous human myocilin from spent medium of human trabecular meshwork (hTM) cells (human, UniProt Q99972 33-504); experiment: immunoprecipitation from spent hTM medium
T4 construct: Secreted protein; It was heparin-enriched for dot blots and used directly from spent medium for immunoprecipitation; also called full-length myocilin; hTM-secreted myocilin
T4 sequence: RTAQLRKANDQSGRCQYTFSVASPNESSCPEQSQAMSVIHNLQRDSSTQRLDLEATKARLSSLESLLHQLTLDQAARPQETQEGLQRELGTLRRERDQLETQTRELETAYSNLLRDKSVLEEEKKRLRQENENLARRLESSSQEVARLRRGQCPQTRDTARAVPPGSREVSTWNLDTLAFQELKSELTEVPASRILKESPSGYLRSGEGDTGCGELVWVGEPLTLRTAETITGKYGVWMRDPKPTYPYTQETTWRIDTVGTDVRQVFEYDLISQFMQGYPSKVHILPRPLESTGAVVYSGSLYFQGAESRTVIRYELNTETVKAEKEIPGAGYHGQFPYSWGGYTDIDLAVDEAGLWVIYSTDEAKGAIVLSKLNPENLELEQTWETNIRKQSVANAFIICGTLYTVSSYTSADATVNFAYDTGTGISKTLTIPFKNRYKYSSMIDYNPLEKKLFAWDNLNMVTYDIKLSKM
Procedure: Immunoprecipitation: Antibodies in IgG format (0.5 ng/ml) were incubated with 10 mL spent hTM medium (experiment) or 10 mL buffer control (50 mM HEPES pH 7.5, 200 mM NaCl, 10% glycerol) overnight at 4° C. on a rocker. Subsequently, Pierce™ Protein A/G Plus agarose suspension (50 μL, ThermoFisher Scientific®) was added, and samples were rocked an additional 2 hours at room temperature. Resin was pelleted by centrifugation (10 minutes at 1,000× g), washed at least 5 times with 500 uL buffer. Bound proteins were eluted by adding 50 μL 2× Laemmli buffer, incubated for 10 minutes at room temperature, followed by pelleting and removing the supernatant. Samples were supplemented to 3% v/v β-mercaptoethanol and heated 10 minutes at 95° C. prior to SDS-PAGE and Western blot analysis.

Measured: binding result

B1: 2A4 IgG (monoclonal antibody 2A4) (antibody, V domains shown)
VH: EVQLQQSGAELMRSGASVKLSCTASGFNIKDYYMHWVKQRPEQGLEWIGWIDPENGDTEYAPKFQGKATMTADTSSNTAYLQLSSLTSEDTAVYYCNPFVYWGQGTLVTVSA
VL: DIVMTQSQKFMSTSVGDRVSVTCKASQNVGTNVAWYQQKPGQSPKALIYSASYRYSGVPDRFTGSGSGTDFTLTISNVQSEDLAEYSCQQYNSYPYTFGGGTKLEIKR
notes: Full length chimeric human IgG1 with kappa light chain (IgG-Abvec and IgK-Abvec vectors), produced in CHO-K1 cells
binds: all assays above

Source: patent US20260009804A1 (GEORGIA TECH RESEARCH, published 2026)
